Results taken from patent US20050277167.
Entries after “also recorded” stand apart in the source; their conditions may differ.

Target: [2,3-3H]-L-proline-labeled procollagen substrate

B1: chicken prolyl 3-hydroxylase 1 (chicken P3H1) (protein)
chain: AGPPGPLGPPEHSEPPLPAEPPDALFAAGAEAYARGDWPAVVLQMERALRARAAIRARSVRCRLRCANATAVVPTDGLEPTLHDLLFFRGLLRRAACLRGCGPTQPSRYRLGEELEREFRKRSPYNYLQVAYFKINKVAKAVAAAHTFFVANPEHVEMKQNLEYYQMMAGVRESDFADLEARPHMTEFRLGVRFYSEEQPAAAVLHLEKALQEYFVADTECRALCEGPYDYEGYNYLEYNADLFQAMTDHYMQVLSCKQGCVTELASQPGREKPLEDFLPSHFNYLQFAYYNNGNYEKAIECAKTYLLFFPNDEVMNQNLAYYTAVLGEDLARPIEPRKEIQAYRQRSLMEKELLFFSYDVFGIPFVDPDTWTPEEVIPKRLREKQKVERETAARISEEIGNLMKEIETLVEEKAKESAEMSKFIREGGPLVYEGASVTMNSKSLNGSQRVVVDGVLSAEECRELQRLTNAAASAGDGYRGKTSPHTPSETFYGVTVLKALKLGQEGKVPLQSAHLYYNVTEKVRHMMESYFRLEVPLHFSYSHLVCRTAIDEKQEGRSDNSHEVHVDNCILNAEALVCVKEPPAYTFRDYSAILYLNGDFEGGAFYFTELDAKTQTAEVQPQCGRAVGFSSGSENPHGVKAVTKGQRCAIALWFTLDPRHSERERVQADDLVKMLFRTEEVDLLQETSAEQEPTAATSTAGLHAAGKDEL
For B1, the “Km; prolyl 3-hydroxylase activity as release of tritiated water (THO), double reciprocal plot” value was “a Km of 179 µl of substrate per 2 mls reaction volume; also recorded: or 89.5 µl of substrate per ml”.
